Laboratory results: patent publication US20090068207A1, “Compositions Containing Beta 2-Glycoprotein I-Derived Peptides for the Prevention and/or Treatment of Vascular Disease” (Vascular Biogenics Ltd., priority 2005, published 2009)

Experiments:
[1] = test system: aorta tissue from ApoE-KO mice; experiment: RT-PCR analysis of cytokine expression in aorta; format: in vivo; conditions: oral 100 μg/mouse, 5 times every other day; male ApoE-KO mice
Protocol: RT-PCR analysis of cytokine expression: 7-9 week old male ApoE-KO mice were tolerized by oral administration of β2GPI in 5 feedings, every other day, of human β2GPI (100 μg/mouse) or PBS, as control, by gavage, as detailed hereinabove. Three days following the oral administration of β2GPI, the mice were sacrificed, aortas collected and processed for RT-PCR analysis of the expression of anti-inflammatory Th2 type cytokine IL-10 and the proinflammatory Th1-type cytokine IFN-γ. The RT-PCR analysis was performed according to the protocol as described in detail by Colle et al (Journal of Immunol Methods 1997; 175-184). Briefly, RNA was extracted from the aortal tissue and reverse transcribed according to well-known, standard protocols, and the transcription products subjected to PCR amplification using the following primers: IL-10-forward primer 5′ […] 3′ (SEQ ID NO: 1), located at nucleotide positions 256-278 of IL-10 (GenBank Accession No. NM 010548 (SEQ ID NO: 2)) and reverse primer 5′[…] 3′ (SEQ ID NO: 3), located at nucleotide positions 532-556 of IL-10 (GenBank Accession No. NM 010548 (SEQ ID NO: 2)); IFN-γ-forward primer 5′ […] 3′ (SEQ ID NO: 4), located at nucleotide positions 372-397 of IFN-γ (GenBank Accession No. NM 008337 (SEQ ID NO: 5)), reverse primer 5′ […] 3′ (SEQ ID NO: 6), located at nucleotide positions 804-827 of IFN-γ (GenBank Accession No. NM 008337 (SEQ ID NO: 5)); and β-actin-forward primer 5′ […] 3′ (SEQ ID NO: 7), located at nucleotide positions 230-252 of β-actin (GenBank Accession No. NM 007393 (SEQ ID NO: 8)), and reverse primer 5′ […] 3′ (SEQ ID NO: 9), located at nucleotide positions […] of β-actin (GenBank Accession No. NM 007393 (SEQ ID NO: 8)). The resultant amplified IL-10, IFN-γ and β-actin transcripts were separated by electrophoresis on an agarose gel, and visualized by ehtidium bromide staining.
Male ApoE-KO mice 7-9 weeks of age were treated by oral administration of human β2GPI (100 μg/mouse) or PBS, as control, by gavage, as detailed hereinabove, 5 times, on every other day. […]

lymph node cells = experiment: Lymph node cell proliferation (stimulation index) to oxLDL after oral administration; format: in vivo, mice; conditions: oral, 3 doses of 100 μg; LDL-RD mice immunized with OxLDL; OxLDL challenge; mean ± S.E.
Protocol: Proliferation was measured by the incorporation of [^3H] thymidine into DNA during the final 12 h of incubation. The results were computed as stimulation index: the ratio of the mean cpm of the antigen to the mean background cpm obtained in the absence of the antigen.
[…] Three days after the final administration of peptides, the mice were immunized with OxLDL in incomplete Freund's adjuvant, as described in the Examples above, and lymph node cells assessed for antigen (OxLDL) stimulation of proliferation 10 days later. Proliferation was assessed by incorporation of thymidine, expressed as the Stimulation Index, as described.

LDL-RD mice = experiment: Aortic sinus lesion area after oral administration, Western diet; format: in vivo; conditions: for Aortic sinus lesion (μm^2): End, mean ± S.E
Protocol: Oral Tolerance: For comparison, oral tolerance to plaque-associated molecules was induced by feeding […] of antigen every other day (for a detailed account of induction of oral tolerance, see U.S. patent application Ser. No. 09/806,400 to Shoenfeld et al filed Sep. 30, 1999), in a similar regimen to the nasal tolerance. LDL-RD mice were fed by a nasogastric tube, five doses (every other day) of human or bovine β2GPI in PBS in two different concentrations (500 and 50 μg/dose).
Oral tolerance to β2GPI-derived peptides, alone or in combination was induced by feeding 100 μg of the peptides (prepared in PBS, 0.2 ml), as detailed hereinabove, every other day for a total of 5 doses of 100 μg. One day following the last feeding, all mice were switched from chow-diet to an atherogenic “Western” diet and sacrificed five weeks later.
Assessment of Atherosclerosis: Quantification of atherosclerotic fatty streak lesions was done by calculating the lesion size in the aortic sinus as previously described (16) and by calculating the lesion size in the aorta. Briefly, after perfusion with saline Tris EDTA, the heart and the aorta were removed from the animals and the peripheral fat cleaned carefully. The upper section of the heart was embedded in OCT medium (10.24% w/w polyvinyl alcohol; 4.26% w/w polyethylene glycol; 85.50% w/w nonreactive ingredients) and frozen. Every other section (10 μm thick) throughout the aortic sinus (400 μm) was taken for analysis. The distal portion of the aortic sinus was recognized by the three valve cusps that are the junctions of the aorta to the heart. […] Lesion areas per section were scored on a grid (17) by an observer counting unidentified, numbered specimens. The aorta was dissected from the heart and surrounding adventitious tissue was removed. Fixation of the aorta and Sudan staining of the vessels were performed as previously described (21).
LDL-receptor deficient (LDL-RD; LDLR −/−) mice created on a C57BL/6 background develop accelerated atherosclerosis when fed a high cholesterol diet, but not when fed a regular chow diet. In order to determine whether mucosal administration of the plaque antigen β2GPI could suppress atherogenic processes, LDL-RD mice were fed low, oral tolerance inducing doses of human and bovine β2GPI, and the assessed for alterations in response to diet.

B1: Human β2 GPI: human beta2-glycoprotein I (SEQ ID NO: 10) purified from serum (protein)
chain: MISPVLILFSSFLCHVAIAGRTCPKPDDLPFSTVVPLKTFYEPGEEITYSCKPGYVSRGGMRKFICPLTGLWPINTLKCTPRVCPFAGILENGAVRYTTFEYPNTISFSCNTGFYLNGADSAKCTEEGKWSPELPVCAPIICPPPSIPTFATLRVYKPSAGNNSLYRDTAVFECLPQHAMFGNDTITCTTHGNWTKLPECREVKCPFPSRPDNGFVNYPAKPTLYYKDKATFGCHDGYSLDGPEEIECTKLGNWSAMPSCKASCKLPVKKATVVYQGERVKIQEKFKNGMLHGDKVSFFCKNKEKKCSYTEDAQCIDGTIEVPKCFKEHSSLAFWKTDASDVKPC
B1 was tested, and the “expression of IFN-γ in aorta (RT-PCR)” value [1] was “inhibition of expression”, the “expression of IL-10 in aorta (RT-PCR)” value [1] was “induction of expression” and the “tissue levels of β-actin gene transcripts (RT-PCR)” value [1] was “without any influence”. For the same molecule, the Stimulation index (lymph node cells) was 38 ± 12, the “Aortic sinus lesion (μm^2)” value (LDL-RD mice; oral 50 μg) was 26563 ± 2370 μm^2 and the “Aortic sinus lesion (μm^2)” value (LDL-RD mice; oral 100 μg) was 30250 ± 4464 μm^2. For the same molecule, the “Aortic sinus lesion (μm^2)” value (LDL-RD mice; oral 500 μg) was 27031 ± 3387 μm^2, the “reduction of atherosclerosis as compared with BSA-fed controls” value (LDL-RD mice; oral 50 μg/dose) was 45% and the “reduction of atherosclerosis (aortic sinus lesion size) as compared with BSA- and PBS-fed controls” value (LDL-RD mice; oral 100 μg/dose, 5 doses, Western diet 5 weeks) was 44%. The “reduction of atherosclerosis as compared with BSA-fed controls” value (LDL-RD mice; oral 500 μg/dose) was 44%.
